Source: PMC2636851

Experiments:
Mcm10-ID wild type [1] = target: T1, Mcm10-ID wild type (Xenopus laevis, UniProt Q5EAW4 230-427); assay: fluorescence anisotropy
T1 sequence: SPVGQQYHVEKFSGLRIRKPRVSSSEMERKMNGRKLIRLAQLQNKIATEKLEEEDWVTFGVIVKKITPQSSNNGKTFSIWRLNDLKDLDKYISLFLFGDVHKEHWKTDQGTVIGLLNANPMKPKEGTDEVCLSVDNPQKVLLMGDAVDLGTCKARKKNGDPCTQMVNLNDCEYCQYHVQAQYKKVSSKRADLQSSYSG

Mcm10-ID wild type [2] = target: T1, Mcm10-ID wild type; assay: NMR
Mcm10-ID K293A = target: T2, Mcm10-ID K293A (Xenopus laevis, UniProt Q5EAW4 230-427, K293A); assay: fluorescence anisotropy
T2 sequence: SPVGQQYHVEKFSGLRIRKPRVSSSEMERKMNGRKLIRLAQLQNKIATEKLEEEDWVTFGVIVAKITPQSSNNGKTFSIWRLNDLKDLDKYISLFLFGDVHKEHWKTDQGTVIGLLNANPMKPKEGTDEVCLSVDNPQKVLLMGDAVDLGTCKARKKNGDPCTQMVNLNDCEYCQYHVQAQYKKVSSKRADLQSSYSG

Mcm10-ID K385E/K386E = target: T3, Mcm10-ID K385E/K386E (Xenopus laevis, UniProt Q5EAW4 230-427, K385E;K386E); assay: fluorescence anisotropy
T3 sequence: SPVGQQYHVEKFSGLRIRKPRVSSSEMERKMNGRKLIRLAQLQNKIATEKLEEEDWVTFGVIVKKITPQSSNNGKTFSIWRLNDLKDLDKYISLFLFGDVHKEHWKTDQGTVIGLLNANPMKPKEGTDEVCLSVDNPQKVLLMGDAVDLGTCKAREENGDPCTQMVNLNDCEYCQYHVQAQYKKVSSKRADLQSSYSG

Mcm10-ID F326A = target: T4, Mcm10-ID F326A (Xenopus laevis, UniProt Q5EAW4 230-427, F326A); assay: fluorescence anisotropy
T4 sequence: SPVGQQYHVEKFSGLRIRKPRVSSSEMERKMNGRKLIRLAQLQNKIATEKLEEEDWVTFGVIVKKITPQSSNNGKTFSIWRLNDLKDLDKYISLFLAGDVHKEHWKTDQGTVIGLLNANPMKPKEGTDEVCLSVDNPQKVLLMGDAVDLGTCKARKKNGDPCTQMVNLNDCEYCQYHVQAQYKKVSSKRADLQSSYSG

Mcm10-ID K417E/R418E = target: T5, Mcm10-ID K417E/R418E (Xenopus laevis, UniProt Q5EAW4 230-427, K417E;R418E); assay: fluorescence anisotropy
T5 sequence: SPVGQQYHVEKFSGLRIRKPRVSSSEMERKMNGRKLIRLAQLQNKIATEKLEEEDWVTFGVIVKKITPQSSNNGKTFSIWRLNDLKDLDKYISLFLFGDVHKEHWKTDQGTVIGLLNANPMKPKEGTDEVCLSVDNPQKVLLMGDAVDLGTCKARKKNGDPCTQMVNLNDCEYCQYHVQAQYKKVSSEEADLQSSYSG

Mcm10-ID K412E/K413E = target: T6, Mcm10-ID K412E/K413E (Xenopus laevis, UniProt Q5EAW4 230-427, K412E;K413E); assay: fluorescence anisotropy
T6 sequence: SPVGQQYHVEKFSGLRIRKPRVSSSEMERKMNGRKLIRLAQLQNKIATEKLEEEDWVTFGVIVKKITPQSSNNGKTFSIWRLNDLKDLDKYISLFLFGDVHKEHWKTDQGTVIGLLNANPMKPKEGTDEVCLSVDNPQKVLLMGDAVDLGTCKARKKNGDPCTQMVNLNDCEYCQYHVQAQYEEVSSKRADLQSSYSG

Question: Does ATGGTAGGCA (ssDNA) [10mer from 5' end of 25mer] bind (Mcm10-ID wild type [1])?
Answer: binds

Question: Does GGCGCATTGTCGCAA (ssDNA) [15mer ssDNA (NMR)] bind (Mcm10-ID wild type [2])?
Answer: binds

Question: For ATGGTAGGCAACCATGTAGTAGTCA (ssDNA) [25mer ssDNA], which binding signal (Mcm10-ID K293A) is on record?
Answer: 5 fold reduction in affinity vs wild type

Question: What about the binding signal (Mcm10-ID K385E/K386E) of the same binder?
Answer: 10 fold reduction in affinity vs wild type

Question: Does ATGGTAGGCAACCATGTAGTAGTCA (ssDNA) [25mer ssDNA] bind (Mcm10-ID F326A)?
Answer: binds

Question: Does ATGGTAGGCAACCATGTAGTAGTCA (ssDNA) [25mer ssDNA] bind (Mcm10-ID K417E/R418E)?
Answer: binds

Question: Does ATGGTAGGCAACCATGTAGTAGTCA (ssDNA) [25mer ssDNA] bind (Mcm10-ID K412E/K413E)?
Answer: binds
